Source: article PMC9175492

Experiments:
[1] = target: LgBit, an 18-kDa subunit of NanoLuc; experiment: split reporter
[2] = target: proteins in FBS (bovine (fetal bovine serum)); experiment: fluorescence polarisation

Substance | fold induction of luminescence at 10 μM [1] | Kd [2]
CPP12-HiBit conjugate (peptide) | 200 fold | –
FITC-labeled CPP12 (peptide) | – | 29 µM
NF-labeled CPP12 (peptide) | – | 1.3 µM
TMR-labeled CPP12 (peptide) | – | 27 µM
